Values quoted from earlier work, collected in publication PMC4115806.

Molecular target: EPCR (Homo sapiens) (UniProt Q9UNN8)
Sequence (Q9UNN8 18-210): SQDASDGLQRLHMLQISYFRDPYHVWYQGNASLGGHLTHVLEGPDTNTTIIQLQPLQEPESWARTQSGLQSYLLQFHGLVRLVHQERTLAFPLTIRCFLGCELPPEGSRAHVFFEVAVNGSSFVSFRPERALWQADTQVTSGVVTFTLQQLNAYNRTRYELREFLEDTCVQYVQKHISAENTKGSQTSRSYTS

Sequence of protein C (P04070 43-197): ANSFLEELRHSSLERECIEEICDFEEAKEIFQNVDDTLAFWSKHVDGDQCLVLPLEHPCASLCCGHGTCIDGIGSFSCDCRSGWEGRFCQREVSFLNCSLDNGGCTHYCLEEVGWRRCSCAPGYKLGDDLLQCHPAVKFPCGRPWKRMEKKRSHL

protein C (from UniProt P04070)
Kd: 30 nM
